# Experimental data reported in patent US20240150797A1, “BIOCATALYTICAL PRODUCTION OF DIHYDROCHALCONES” (Symrise AG, priority 2021, published 2024).
# Changes are numbered by the printed parent chain.
# B1: CHI6: Chalcone isomerase from Lachnoclostridium sp., access no. HCD45524.1 (protein, listed as Lachnoclostridium sp.)
# chain: GTEFDPMRSFIYVDVIKEEYRHKLQHWLYFHHIPESISQFEPYCTKYAFYNALPVPEGGERFGTARMQITEHSWLVNIMDPALKVKAFQEYMPIEALKWQGTVPETAGDVLMSGDDARCTGGNNGCMPFVFAFCPMWWEEDVKGAGRTLTEGANYRWNFALTYPEGISKEEGDKWLFEEVFPYFEANNCCTRILTSKVRQEINGCPMYRVVEMWFTGPTAWHHLAVETADKIKSPSWAKDGDVFPYLKSGFEIRGAFVTDYPTCDAYSQYRGYIPRR
# B2: CHI8: Chalcone isomerase from Roseburia sp., access no. SCJ10619.1 (protein, listed as Roseburia sp.)
# chain: RSLIYVDVAKEQYRVKLNHWLYAVHVPESISKFRPYVSQYAFYNALPVPPLGEQFGTVRMQLTEHYWQVNPMDVSMAVNVFTETFPTEVLIWQGNMPENAIALNYEGDEARSAKVENCNPFVFAFLPISWEEDLKGAGRTMADGPNYRWNFALHYPDGVSVETGDQWFYEKFVPAFLEIPEATRMVTSKIIKEINDCPMDRVVEIWFEGPDQWSAAMEKAKSIEPPEWAQEETFPYLKPYQNIMGVFVADNISSDNLNNHRGYITMR
# B3: CHI5: Chalcone isomerase from Parasporobacterium paucivorans, access no. WP_073993359.1 (protein)
# chain: GPEFQPMRSLIYVDCVKEEYRHRLQNWLYHYHVPDSISQFAPYVSKYCFYNALPTPPEGERFGTIRQQLTEHYWMVNPFTEHFKNKALTEYFPCDVLKWQGNIPDDDLEVNFEGDEARSKGGHNGCAPFIFAFLPLCWEEDFKGKERTIENGPNYRWNFVMKYPEGTSMEEGDKWFYEKMIPAFQEMPEVTRILTSKVIQSINGCAFHRVVEMWFDGPNAWYQAAVVKAKNIEKPSWASVDAFPYLQATFEFDGIFLTDYAASDNMSQYRGYLAMR
# modifications: Parasporobacterium paucivorans
# B4: CHI9: Chalcone isomerase from Roseburia sp. OM02-15, access no. WP_118702262.1 (protein)
# chain: GEITYQPLRSLIYVDCVKEEYRHKLQHWLYYYHAPESIAKFEPWVTKYAFYNALPTPPQGERFGTYRMQLTEHYWMVNPMSQESLVNSLNEYFPIDAMIWQGTLPENAKEDGFMADGEAARASGGDNGCPPFIFAFLPIFWEQDLKGAGRTMVDGPNYRWQFLVSYPEGHKEDGDQWMMNEVLPAFAAMPEVTRMMTSKVKKEINNCHMDRCVEMWFDGPEEWYHCAVENAASFKKPEWAEYDNFPYLRPQFQFASLFLTDIATSDNLKQYRGYLPMR
# modifications: Roseburia sp. OM02-15
# B5: CHIera: Chalcone isomerase from Eubacterium ramulus (protein, listed as Eubacterium ramulus)
# chain: ADFKFEPMRSLIYVDCVSEDYRPKLQRWIYKVHIPDSISQFEPYVTKYAFYPSFPIPPQGDRFGYARMQLTEHHWLVSDLDPRLEIKAIAETFPMDVLVWQGQIPAAAHTDAQIDSDGDAGNAARKSNNAEGNPFIFAFLPMWWEKDLKGKGRTIEDGANYRFNMTIGFPEGVDKAEGEKWLFEKVVPILQAAPECTRVLASAVKKDINGCVMDWVLEIWFENQSGWYKVMVDDMKALEKPSWAQQDAFPFLKPYHNVCSAAVADYTPSNNLANYRGYITMR
# B6: CHIera Mut1: Chalcone isomerase variant 1 from Eubacterium ramulus, genetically engineered (protein, listed as Eubacterium ramulus)
# chain: MADFKFEPMRSLIYVDCVSEDYRPKLQRWIYKVHIPDSISKFEPYVTKYAFYPSFPIPPQGDRFGYARMQLTEHHWLVSELDPRLEINAIAETFPMDVLVWQGQIPAAAHTDAQIDSDGDAGRAAGKSNNAEGNPFIFAFLPMWWEKDLKGKGRTIEDGANYRFNMTIGFPEGVDKAEGEKWLFEKVVPILQAAPECTRVLASAVKKDINGCVMDWVLEIWFENQSGWYKVMVDDMKALEKPSWAQQDAFPFLKPYHNVCSAAVADYTPSNNLANYRGYITMR
# B7: CHIera Mut13: Chalcone isomerase variant 13 from Eubacterium ramulus, genetically engineered (protein, listed as Eubacterium ramulus)
# chain: B6 chain with E80P, G122D, R123D, G126R
# B8: CHIera Mut6: Chalcone isomerase variant 6 from Eubacterium ramulus, genetically engineered (protein, listed as Eubacterium ramulus)
# chain: B6 chain with K41N, N88R, R123D, G126R
# B9: CHIera Mut3: Chalcone isomerase variant 3 from Eubacterium ramulus, genetically engineered (protein, listed as Eubacterium ramulus)
# chain: B6 chain with K41N, N88K
# B10: CHIera Mut8: Chalcone isomerase variant 8 from Eubacterium ramulus, genetically engineered (protein, listed as Eubacterium ramulus)
# chain: B6 chain with E80P, R123E, G126R
# B11: CHIera Mut5: Chalcone isomerase variant 5 from Eubacterium ramulus, genetically engineered (protein, listed as Eubacterium ramulus)
# chain: B6 chain with E80P, G126K
# Assay: Specific activity of purified CHI, absorbance decrease at 384 nm, naringenin chalcone
# Assay type: biochemical
# Conditions: purified CHI in 50 mM PBS, 100 μM substrate, 25° C.
# Description: (§1) E. coli BL21 (DE3) cells containing one of the pET28b plasmids from Table 2 or Table 3 were used to inoculate 1 L LB medium at OD of 0.1. Cells were incubated at 37° C., 250 rpm until the OD reached 0.4-0.6 and induced by supplementing with 0.1 mM IPTG. After protein expression at 28° C., 250 rpm for 16 h, the cells were harvested by centrifugation at 4,000×g for 15 min. The harvested cells were lysed with 0.5 mg/mL lysozyme (Sigma-Aldrich), 0.4 U/mL Benzonase (Sigma-Aldrich) and BugBuster (Merck) at room temperature for 0.5 h to obtain a crude cell extract. The crude extract was centrifuged at 10,000×g for 30 min to remove the pellet. Recombinant proteins were purified by Ni-affinity chromatography (GE Healthcare). The supernatant of the crude extract was loaded on the column with 20 mM imidazole. The column was washed by 5 column volumes of 30 mM imidazole with 20 mM PBS (pH 7.4) and 500 mM NaCl. The target proteins were eluted by 150 mM imidazole with 20 mM PBS (pH 7.4) and 500 mM NaCl. Buffer exchange with 50 mM PBS (pH 7.5) was achieved by ultrafiltration with Amicon Ultra-15 (Merck). The activity of the respective purified enzyme was determined by measuring the absorbance decrease at 384 nm in the reaction mix (CHI in 50 mM PBS with 100 μM of either naringenin chalcone, hesperetin chalcone, eriodictyol chalcone, homoeriodictyol chalcone or 4-O-methyl butein at 25° C.).
row,Molecule,"Specific activity, Naringenin chalcone"
1,B1,16.8
2,B2,73.5
3,B3,59.9
4,B4,22.7
5,B5,270.0
6,B6,32.6
7,B7,28.0
8,B8,17.1
9,B9,16.7
10,B10,25.6
11,B11,8.0

# Assay: Specific activity of purified CHI, absorbance decrease at 384 nm, eriodictyol chalcone
# Assay type: biochemical
# Conditions: purified CHI in 50 mM PBS, 100 μM substrate, 25° C.
# Description: as §1
row,Molecule,"Specific activity, Eriodictyol chalcone"
1,B1,17.0
2,B2,33.9
3,B3,82.7
4,B4,69.7
5,B5,90.7
6,B6,59.5
7,B7,28.0
8,B8,52.4
9,B9,39.2
10,B10,49.0
11,B11,13.5

# Assay: Specific activity of purified CHI, absorbance decrease at 384 nm, homoeriodictyol chalcone
# Assay type: biochemical
# Conditions: purified CHI in 50 mM PBS, 100 μM substrate, 25° C.
# Description: as §1
row,Molecule,"Specific activity, Homoeriodctiol chalcone"
1,B1,8.1
2,B2,22.8
3,B3,19.7
4,B4,10.4
5,B5,44.5
6,B6,23.7
7,B7,33.6
8,B8,20.0
9,B9,13.0
10,B10,21.2
11,B11,8.8

# Assay: Specific activity of purified CHI, absorbance decrease at 384 nm, hesperetin chalcone
# Assay type: biochemical
# Conditions: purified CHI in 50 mM PBS, 100 μM substrate, 25° C.
# Description: as §1
row,Molecule,"Specific activity, Hesperetin chalcone"
1,B1,3.3
2,B2,19.2
3,B3,84.5
4,B4,43.0
5,B5,31.5
6,B6,93.2
7,B7,107.1
8,B8,30.3
9,B9,55.1
10,B10,83.9
11,B11,4.5

# Assay: Specific activity of purified CHI, absorbance decrease at 384 nm, 4-O-methyl butein
# Assay type: biochemical
# Conditions: purified CHI in 50 mM PBS, 100 μM substrate, 25° C.
# Description: as §1
row,Molecule,"Specific activity, 4-O-methyl butein"
1,B1,0.1
2,B2,1.2
3,B3,0.4
4,B4,0.4
5,B5,0.1
6,B6,0.4
7,B7,1.4
8,B8,0.4
9,B9,0.3
10,B10,0.5
11,B11,0.1
